In patent publication US20100048677A1 (NEW YORK BLOOD CENTER, published 2010):

These molecules were tested against αIIbβ3 (human) (UniProt P08514) (assay: antibody staining of UCB-derived megakaryocytes, after thrombin receptor-activating peptide).

percentage of UCB cells recognized [%]	Molecule
16	PAC1, an activation-dependent, ligand-mimetic anti-αIIbβ3 monoclonal antibody

Each molecule was assayed against αIIb (INTEGRIN, ALPHA 2B; PLATELET GLYCOPROTEIN IIB OF IIB/IIIA COMPLEX, ANTIGEN CD41) (human) (UniProt P08514) (assay: αIIb complexes captured, mass spectrometry; No. Expts 3).

#Peptides [peptides]	Molecule
83	GLUTAMATE DEHYDROGENASE 1 (from UniProt P00367 54-558)
62	KIAA1529 (from UniProt Q9P1Z9 1-1701)
22	PLASMINOGEN (from UniProt P00747 20-810)
7	SHROOM3 F-ACTIN BINDING PROTEIN (from UniProt Q8TF72 1-1996)
20	THIOREDOXIN DOMAIN CONTAINING 4 (ENDOPLASMIC RETICULUM) (from UniProt Q9BS26 30-406)

Each molecule was assayed against αIIb (INTEGRIN, ALPHA 2B; PLATELET GLYCOPROTEIN IIB OF IIB/IIIA COMPLEX, ANTIGEN CD41) (human) (UniProt P08514) (assay: αIIb complexes captured, mass spectrometry; No. Expts 1).

Molecule	#Peptides [peptides]
UDP-GLUCOSE PYROPHOSPHORYLASE 1 (from UniProt Q16851 1-508)	13
ZINC FINGER PROTEIN 703 (from UniProt Q9H7S9 2-590)	2
… (from UniProt P02787 20-698)	7
… EXPRESSED 10 (from UniProt Q86TG7 1-708)	3
…-3-PHOSPHATE DEHYDROGENASE (from UniProt P04406 2-335)	3
…-TRNA … 2 (from UniProt O95363 1-451)	13
…-TRNA … 2 (from UniProt Q96I59 15-477)	2

The next lines start with the values.

#Peptides [peptides]	Molecule
3	ZINC FINGER PROTEIN 300 (from UniProt Q96RE9 1-604)
4	… CYCLASE 6 (from UniProt O43306 1-1168)
3	…, DSH HOMOLOG 2 (DROSOPHILA) (from UniProt O14641 1-736)
20	…-… 9 (from UniProt Q86TI2 2-863)

These molecules were tested against T1, mature αIIbβ3 complex (human, UniProt P08514 32-887; P08514 891-1039; P05106 27-788) (assay: co-immunoprecipitation with conformation-specific mAb M148, immunoblot for DNAJC10).
T1 construct: Endogenous, from megakaryocyte lysates

binding result	Molecule
no binding	DNAJC10 (DNAJ (HSP40) HOMOLOG, SUBFAMILY C, MEMBER 10) (other, Endogenous protein in lysates of human UCB-derived megakaryocytes or HEK293 cells) DQDFYSLLGVSKTASSREIRQAFKKLALKLHPDKNPNNPNAHGDFLKINRAYEVLKDEDLRKKYDKYGEKGLEDNQGGQYESWNYYRYDFGIYDDDPEIITLERREFDAAVNSGELWFVNFYSPGCSHCHDLAPTWRDFAKEVDGLLRIGAVNCGDDRMLCRMKGVNSYPSLFIFRSGMAPVKYHGDRSKESLVSFAMQHVRSTVTELWTGNFVNSIQTAFAAGIGWLITFCSKGGDCLTSQTRLRLSGMLDGLVNVGWMDCATQDNLCKSLDITTSTTAYFPPGATLNNKEKNSILFLNSLDAKEIYLEVIHNLPDFELLSANTLEDRLAHHRWLLFFHFGKNENSNDPELKKLKTLLKNDHIQVGRFDCSSAPDICSNLYVFQPSLAVFKGQGTKEYEIHHGKKILYDILAFAKESVNSHVTTLGPQNFPANDKEPWLVDFFAPWCPPCRALLPELRRASNLLYGQLKFGTLDCTVHEGLCNMYNIQAYPTTVVFNQSNIHEYEGHHSAEQILEFIEDLMNPSVVSLTPTTFNELVTQRKHNEVWMVDFYSPWCHPCQVLMPEWKRMARTLTGLINVGSIDCQQYHSFCAQENVQRYPEIRFFPPKSNKAYHYHSYNGWNRDAYSLRIWGLGFLPQVSTDLTPQTFSEKVLQGKNHWVIDFYAPWCGPCQNFAPEFELLARMIKGKVKAGKVDCQAYAQTCQKAGIRAYPTVKFYFYERAKRNFQEEQINTRDAKAIAALISEKLETLRNQGKRNKDEL

The molecules below were run against αIIb (INTEGRIN, ALPHA 2B; PLATELET GLYCOPROTEIN IIB OF IIB/IIIA COMPLEX, ANTIGEN CD41) (human) (UniProt P08514) (assay: αIIb complexes captured, mass spectrometry; No. Expts 4).

#Peptides [peptides]	Molecule
65	ASPARTYL-TRNA … (from UniProt P14868 1-501)

Each molecule was assayed against αIIb (INTEGRIN, ALPHA 2B; PLATELET GLYCOPROTEIN IIB OF IIB/IIIA COMPLEX, ANTIGEN CD41) (human) (UniProt P08514) (assay: αIIb complexes captured, mass spectrometry; No. Expts 2).

#Peptides [peptides]	Molecule
34	5′-NUCLEOTIDASE DOMAIN CONTAINING 2 (from UniProt Q9H857 1-520)
16	ALDEHYDE DEHYDROGENASE 18 FAMILY, MEMBER A1 (from UniProt P54886 1-795)
20	CHAPERONIN CONTAINING TCP1, SUBUNIT 2 (BETA) (from UniProt P78371 2-535)
68	DEAH (ASP-GLU-ALA-HIS) BOX PO… 15 (from UniProt O43143 1-795)
30	DYNAMIN BINDING PROTEIN (from UniProt Q6XZF7 1-1577)
14	FILAMIN A, ALPHA (ACTIN BINDING PROTEIN 280) (from UniProt P21333 2-2647)
11	HEAT SHOCK 70 kDa PROTEIN 8 (from UniProt P11142 2-646)
26	HETEROGENEOUS NUCLEAR RIBONUCLEOPROTEIN L (from UniProt P14866 1-589)
52	TUBULIN, BETA (from UniProt P07437 1-444)

These molecules were tested against αIIbβ3 (human) (UniProt P08514) (assay: antibody staining of UCB-derived megakaryocytes, before thrombin receptor-activating peptide).

percentage of UCB cells recognized [%]	Molecule
3	PAC1, an activation-dependent, ligand-mimetic anti-αIIbβ3 monoclonal antibody
